Two substances from patent US6476190 can be followed below.

The subject of data set [1] is 2-aminobenzoyl-Thr-Ile-Nle-Phe(p-NO2)-Gln-Arg-NH2 (SEQ. ID NO. 4).
In data set [2] the test system is Ac-Thr-Ile-Nle-Nle-Gln-Arg-NH2 (SEQ ID NO 1).

Consider “[(NHCH2COSCH2CO)^51-52 Aba^67,95] HIV-1 PR”, for which the “fluorogenic assay (fluorescence against time of incubation)” value in data set [1] is on record as “showed identical activities”. Besides, the “cleavage of the peptide substrate (reverse phase HPLC; products identified by ion spray mass spectrometry)” value in data set [2] was “The peptide products were identified by ion spray mass spectrometry as (H)-Nle-Gln-Arg. NH2 (early eluting) and Ac-Thr-Ile-Nle-(OH) (late eluting)”.

As for {Aba^67,95,167,195} HIV-1 PR, in data set [1], the “fluorogenic assay (fluorescence against time of incubation)” value was “showed identical activities”.
